“And” between values parts separate entries of the source, which are not always exact repeats. Identical values can stand only once.
Legend:
[1] = target: His-tagged recombinant human FcγRIIIa (158 V) (human); experiment: SPR; Biacore T200; His-tagged FcγR captured by an anti-His antibody on a CM5 chip; dilution series of antibody as analyte; 1:1 kinetic binding model; triplicate
[2] = target: His-tagged recombinant human FcγRIIIb (human) (UniProt O75015); experiment: as above
Chain of UniProt O75015 (O75015 17-200): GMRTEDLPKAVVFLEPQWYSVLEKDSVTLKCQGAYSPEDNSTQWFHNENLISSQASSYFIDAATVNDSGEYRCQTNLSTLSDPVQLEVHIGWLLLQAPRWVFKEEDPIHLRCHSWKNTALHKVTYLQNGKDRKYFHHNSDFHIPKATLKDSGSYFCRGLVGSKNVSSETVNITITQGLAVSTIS

| Substance | Kd [1] | Kd [2] |
| --- | --- | --- |
| ABP 980 (antibody) | 0.0913 µM | 8.14 µM and 8.29 µM |
| Trastuzumab (EU) (antibody) | 0.193 µM | 13.8 µM |
| Trastuzumab (US) (antibody) | 0.146 µM | 11.8 µM |

From article PMC6834741
